The DeepSol protein solubility set

assay: soluble on expression in E. coli; label from the status in PepcDB or PDB records

Sequence | soluble on expression in E. coli
MSLDIQIQYSTDWKEEFLKRLEDGGPWSNWEMGKLAYEAANYQVIPEFHGLQAPKHLPQLQPFPHQMEVAQTVIEQMNGKAILADEVGLGKTIEAGLILKEYMIRGLAKKVLILVPASLVSQWAYELSSKFYIPAIPQKKAYVWEQYDVVVASIDTAKRQPHRDIVLNQHYDLVIIDEAHKLKNPKTKNYAFIKSLKRKYCLLLTATPVQNKLEEIFNLVSLLKPGHLGDLESFEKEYRANKRAPKNEDKLKELVNKVMVRNRREETGIEWTKRIVQTVPITFSEGERAFYHAITKLKQQPDVMTNSFSLLTLQREICSSREAAFMTLKNMITKLEQEGRTSPILESLIEQVGTIEGHAKAEKALELIQQINDKVIIFTEYRATQLYLQWYLKQHGISSVPFRGGFKRGKKDWMRQLFENRAQVLIATEAGGEGINLQFCHHIINYDLPWNPMRIEQRIGRIHRLGQTEDVRIYNFAVKDTIEEQILTLLYEKIQLFERVVGELDDILTKMNVGSIEEHIRDIFVHSDSEGEMKIKLDHLSAIMNDVANEKEEDHATGATASVSDALLEGHHHHHH | not soluble
MTIETIKRIIEEENVRFIRLQFTDINGTLKNLEITPDVFLESWEDGIMFDGSSIEGFVRIEESDMYLKPVLDTFAVLPWTVDGAKSARVICDVYTPDGKPFEGDPRYRLRRMMEKAEQLGYTPYAGPEMEFFILPINEKGEPVPEFLDHGGYFDLLPLSKVEEIRRDIAIALEKMGITVEATHHEVAPSQHEVDFRYDTFLRTADNAQTVKLVIKTMAIFHGYHATFMPKPFYGVNGSGMHVHMSLFRGDKNAFYDPDDPLGLSKELRYFVGGILKHAKALAAVTNPTINSYKRLVPGYEAPVYISWSVGNRSALIRIPKARGKATRLEYRSPDPSCNIYLAFAAILAAGLDGIINKIEPPAPVEENIYHMTSERREELNIESLPGSLKEAVEELKKDDVIIDALGEHIFEKFVEAAEKDWKEFSTYVTNWELQRYLYL | soluble
MGHHHHHHSHMVGSRRVKAQTFAERRERSFSRSWSDPTPMKADTSHDSRDSSDLQSSHCTLDEAFEDLDWDTEKGLEAVACDTEGFVPPKVMLISSKVPKAEYIPTIIRRDDPSIIPILYDHEHATFEDILEEIERKLNVYHKGAKIWKMLIFCQGGPGHLYLLKNKVATFAKVEKEEDMIHFWKRLSRLMSKVNPEPNVIHIMGCYILGNPNGEKLFQNLRTLMTPYRVTFESPLELSAQGKQMIETYFDFRLYRLWKSRQHSKLLDFDDVL | not soluble
MSLKVWGRGSSFNVQKVLWLVGELGLSHRHIPAGGDHGGLDEPSFLAMNPHGRVPVIDDGGVMVWESHAILRYLAARYGGSEWWPASPVDRAQADGWMDWAQTALQRDFLTGVFWGWYRTPEPERDNDAIRTALAACAKHFLLLDQILANRPFLGGDQPGLADIPCGTHLFRYYALEIDRPRTPNVEAWYARLQARPAYRKAVMIPFDEMKGRLAYEGHHHHHH | soluble
MLVNTKAKVGVFSIALGAYLPQFPSLVPEFEAQYEAFKKTIPDTVEIIDGGMVTTKEQSMVAGDKFRAADVDIVFLQMLTYATSYNMLPAIRDLDVPVVLVNVQKLKALDYDHTDIAAWLGEGYACGAVGEAVADLERAGKRHAVITGVVEGGDPAVQAEIEDWCKAAQVRRRFRDTNIAQIGRPYPGMMDLYIDETNLYNRMFLYTKQFDWEKMWAIADDITDEEAIRAKAQDILDTFDIEDGGTIEKVWDMAKYVVAFEKWVKDEHLSMVASHYDGFAQGKAGVLDSMLIPAFSMLIKQGTACAVEGDMKVAMAMSILKTISGTGQLSEMYSIDFNEDICIIGHSGSGDADISDKKPTMKIVPVFHGKTGGGYLTQFYPYTGPVTYLAITQDKDGHFKFVVAEGVNEEGPILSFGDTNMRTRFTCGAREFVNRWSEAGPTHHMAAATGRHIDTILKVAKIFNIPVDIVTR | not soluble
MAVKFFGQFLVEKGVVSRETLLQAIELQESVNLSFGATSLAMGILTEADIERIHNAQRIEDLRFGDMAVKLGLLTSEQMMQVLTRQKNTHLYIGEALVKVGSFQADELPKYLEEFKADQAQYATDTVVIPTGVSEPKIWEMVADLSYKMLTRVALLVFRPEPCFVADRVPAMDVYATMDFTGDISGRYFMGVTAATQKKIAKAILKEPNVDNEPKEILDDTVMEFVNVALGNIAAKAAQSGKSMEIAPPEIIEAPDGIQVPDGHKALCFPVCLSDGDRIELAVFIQQLEHHHHHH | soluble
VGYGDITQVETSGASSKTSRQDKLEYDGVRASHTMAQTDAGRMEKYKSFINNVAKKHVVDPAVIAAIISRESRAGNVIFNTTPPGWGDNYNGFGLMQVDKRYHEPRGAWNSEEHIDQATGILVNFIQLIQKKFPSWSTEQQLKGAIAAYNTGDGRVESYESVDSRTTGKDYSNDVVARAQWYKKNGF | soluble
VDLNALADLPLTYPEVGATATGRLPAGYNHLDVSTQIGTGRQRFEQAADAVMHWGMQRNAGLRVRASSETAVVSAVVLVGIAFLRAPCRVVYVIDEPDVRGFGYGTLPGHPVSGEERFAVRCDPMTSVVFAEVLSFSRPATWASKAAGPLGAVTQRFIAQRYLRAV | not soluble
MGSDKIHHHHHHALSSIEKIQGKDRYETAAKIAQKQTYENVVLVNTDNTLADGLSASGLAGTVKAPILLSQRNSIPSDTEKMLKDVKKVYIIGTEDSIGKSVENELKQKGIEVKRIGGNDRIETSYLIAKEIASIKPIDKVFITNGYTGEADAMSASSVASRDGAPIILTNGKNVPFEKKEGVQCYALGSEEIISNDLVKKTNSVRLAGEDRFETNKKVIKHFYSSAKEFYLSKGYQLVDAVAGSSIAKNAPIVLVDGNSDKSVLRSADKITALGGIDEKTLEQCLSASSLDASAPTITVGNLNIYQGDKFDISKLNIVAKDSNGNDLTPELIGNINTDKVGKYKVTIKATDIGGKTTSISVEVNVLEYKTNDMNSSEFKRMVSSEMYSLVNSYRKEKGKEPLQVSENLQGMANYWSKYMADKGEFAHVINGKNAAEVFSGGIRSEENIAFVPLTTKSTYTTKDAREVANVIFTVWKKSDKYNENMLSSKFAYTGFGLYILPDGQVYATQEFLNK | not soluble
MGHHHHHHSHMSFSKESSRLFGFVAGIKFPKMIQKVINENYVKYFNINMSEFKAPCEYESLNALFTRTLQIPRKFEEGFISPSDGKILECGSTFLANEEHFAFSIKGHAYSVEELLKDSFEKDELKNGLDYVNIYLSPKDYHRYHSPCDMQILSATYTSGVLYSVNEKHLERISNLYVKNERVSLKCQNEKGIFWLVFVGAQNVGKMRFNFDASIQTNAKISHNFTRKYENLNFKKGEELGNFELGSTIVLISQKGLLTFNLKVGQGIKFGEKIAD | soluble
SLNQDEKRTFRLEKEQELRFEVSNENKVYLTLQSGTAEVFGIELPKKKPVELCDTKLAVFTWQGCELQLQGITDLEYVANETPMHLYLKAHYLLDSMRRKARQQGTKGPKVVIVGPQDSGKSSLCQILSCYAMKGGKKILYASIDFQQGSFSIPGAIGASSVEHVTIEDGMIFENNLVYFYGHTVASENPRLLEKLVSNLSNLLDAKLEDSEMDLGHMGFIADSFGSLDGSNYDVLKQVLKEIKANVIIVLGSERLYADIQRDLCSEQRQIIQLPKSGGVVGRDQYLRRRLQEMQLRCYFYGSDGNLNPFTTVVTFDQVHIVRVGIGLHVPATALPLGAQSTLDPLQISQVTPSTELLHCMLGVSQAEEEEQIVDSPVYGFVHVAKVDISKRTISLLAPSPGKLPGSFLVMGSIRWLE | soluble
CDAGRAKDKANEMMQGGNSLFGAMEGGTKEQVVLDMIDLGEHDAKTLLECEYETLGIHVSGNPLDEFKEEIKGFKNLVKSIDIEELEIGS | not soluble
MGSDKIHHHHHHKDNTKVIAHRGYWKTEGSAQNSIRSLERASEIGAYGSEFDVHLTADNVLVVYHDNDIQGKHIQSCTYDELKDLQLSNGEKLPTLEQYLKRAKKLKNIRLIFELKSHDTPERNRDAARLSVQMVKRMKLAKRTDYISFNMDACKEFIRLCPKSEVSYLNGELSPMELKELGFTGLDYHYKVLQSHPDWVKDCKVLGMTSNVWTVDDPKLMEEMIDMGVDFITTDLPEETQKILHSRAQ | not soluble
MSLQDVDFHIPFPSRRSPDFERARADHLSWPRALGLIGTDAAAERHSRGGYADLAARFYPSATGADLDLGVDLMSWFFLFDDLFDGPRGEDPQETRKLTDAVAAALDGPLPTSAPPIAHGFADVWRRTCQGMSPAWRARSARHWRNYFSGYVDEAVSRHLNTPYDSAGHYLAMRRQTIGVQPTVDLAERSCHCEVPQRVFDSAVLFAMLQIATDTNLILNDIASLEKEEARGELNNMVFILMREHGWTRGRSIAHMQDGVRTRLEQFLLLEACLPKVYDTFELTAQERESAEKYRMDGVRSVIRGSYDWHRSSGRYAADYAEGHHHHHH | soluble
MNNKEKGDFGEKVAVNYLLSKGAKILEKNYRLKIGEIDIIAKMEDEIIFVEVKSRSNIKFGYPCESVSFKKRKKIIGVASYYIIKNNLNNTPIRFDVIEVYLLEKRINHIMNAF | not soluble
MGSDKIHHHHHHMRTRYVDIDDRMEDLADRLRGDPEIVQDFLARYELSWLYHENALEGVVYSSQELATALANAPLADVTFVSALQEIRNHKVALDLVREEAAAKKPKLNLTTVKKLYETLGHGIEGRSVAEYRKDMPLHRAYFHDIAQPPKIQPALQKLLEATEGADFRNAHPIQQACKLHHGFMQVFPFTENSGRVARLLANLVLLHAGYKLPVIVHATDRQRYYESLRLPDTILRDLTMEALDNALTQAEKYFAEAPRARKAAR | not soluble
MIRELVTTAAITGAAIGGAPVAGADPQRYDGDVPGMNYDASLGAPCSSWERFIFGRGPSGQAEACHFPPPNQFPPAETGYWVISYPLYGVQQVGAPCPKPQAAAQSPDGLPMLCLGARGWQPGWFTGAGFFPPEP | soluble
GPGSMSEEHANDSTLRVKVATINDKGEEVYASSLSHDGTYLAAVFGDGALVIFNPSTFSALDSSAAGKGYDNVPCTAVQWLESSEGGLYRLVSVSSAGGVFIWQWDGAALHRTNRVPEKGNEITCLAVSPECDMFITAGSDRTVRLYDADGTLKANLQMAHDESGVSRLAHTSRIFSVRFVSQGVAVSGGWGGPLQVWDLKANEARVEIRGAQVSSDGIELITGTNCVLVASRRQKEQLQVFDCVSGQELADDSARLSMALGELIPLSSRLCKTSGLVWTITSSPSKVLVTSYSTGQLIASYDSAYDLMNISIFEGLPNNAYISCAEGKLLFATVKQ | not soluble
MSLEEQLYKRDPVSGAILVPMTVNDQPIEKNGDKMPLKFKLGPLSYQNMAFITAKDKYKLYPVRIPRLDTSKEFSAYVSGLFEIYRDLGDDRVFNVPTIGVVNSNFAKEHNATVNLAMEAILNELEVFIGRVKDQDGRVNRFYELEESLTVLNCLRTMYFILDGQDVEENRSEFIESLLNWINRSDGEPDEEYIEQVFSVKDSTAGKKVFETQYFWKLLNQLVLRGLLSQAIGCIERSDLLPYLSDTCAVSFDAVSDSIELLKQYPKDSSSTFREWKNLVLKLSQAFGSSATDISGELRDYIEDFLLVIGGNQRKILQYSRTWYESFCGFLLYYIPSLELSAEYLQMSLEANVVDITNDWEQPCVDIISGKIHSILPVMESLDSCTAAFTAMICEAKGLIENIFEGEKNSDDYSNEDNEMLEDLFSYRNGMASYMLNSFAFELCSLGDKELWPVAIGLIALSATGTRSAKKMVIAELLPHYPFVTNDDIEWMLSICVEWRLPEIAKEIYTTLGNQMLSAHNIIESIANFSRAGKYELVKSYSWLLFEASCMEGQKLDDPVLNAIVSKNSPAEDDVIIPQDILDCVVTNSMRQTLAPYAVLSQFYELRDREDWGQALRLLLLLIEFPYLPKHYLVLLVAKFLYPIFLLDDKKLMDEDSVATVIEVIETKWDDADEKSSNLYETIIEADKSEGHHHHHH | not soluble
SAFSGTWQVYAQENYEEFLRAISLPEEVIKLAKDVKPVTEIQQNGSDFTITSKTPGKTVTNSFTIGKEAEITTMDGKKLKCIVKLDGGKLVTRTDRFSHIQEIKAGEMVETLTVGGTTMIRKSKKILVP | soluble
